T1: Taf4, subunit of Komagataella phaffii TFIID (Komagataella phaffii, UniProt F2QWX2 1-411)
T1 construct: Taf4, TFIID subunit of the yeast Komagataella phaffii (formerly Pichia pastoris); histone-fold domain modelled in the cryo-EM map; source: endogenous, K. phaffii nuclear extract; co-purified in TFIID by SBP-tagged Taf2 (streptavidin beads, sucrose gradient)
T1 sequence (looked up): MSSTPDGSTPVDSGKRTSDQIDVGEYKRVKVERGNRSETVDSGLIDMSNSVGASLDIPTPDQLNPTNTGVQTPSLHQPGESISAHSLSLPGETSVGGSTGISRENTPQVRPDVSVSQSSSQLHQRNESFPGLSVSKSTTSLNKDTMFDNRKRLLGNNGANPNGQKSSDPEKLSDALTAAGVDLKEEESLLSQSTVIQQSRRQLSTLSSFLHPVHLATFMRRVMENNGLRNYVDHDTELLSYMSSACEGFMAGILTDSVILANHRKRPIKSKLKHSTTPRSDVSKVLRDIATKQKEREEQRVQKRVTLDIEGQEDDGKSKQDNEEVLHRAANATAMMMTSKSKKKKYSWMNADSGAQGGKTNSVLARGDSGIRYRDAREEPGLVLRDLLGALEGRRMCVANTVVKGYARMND

T2: Taf5, subunit of Komagataella phaffii TFIID (Komagataella phaffii, UniProt F2QWD3 1-722)
T2 construct: Taf5, TFIID subunit of the yeast Komagataella phaffii (formerly Pichia pastoris); WD40 repeat and NTD (residues 99–243) modelled in the cryo-EM map; two copies in holo-TFIID; source: endogenous, K. phaffii nuclear extract; co-purified in TFIID by SBP-tagged Taf2 (streptavidin beads, sucrose gradient)
T2 sequence (looked up): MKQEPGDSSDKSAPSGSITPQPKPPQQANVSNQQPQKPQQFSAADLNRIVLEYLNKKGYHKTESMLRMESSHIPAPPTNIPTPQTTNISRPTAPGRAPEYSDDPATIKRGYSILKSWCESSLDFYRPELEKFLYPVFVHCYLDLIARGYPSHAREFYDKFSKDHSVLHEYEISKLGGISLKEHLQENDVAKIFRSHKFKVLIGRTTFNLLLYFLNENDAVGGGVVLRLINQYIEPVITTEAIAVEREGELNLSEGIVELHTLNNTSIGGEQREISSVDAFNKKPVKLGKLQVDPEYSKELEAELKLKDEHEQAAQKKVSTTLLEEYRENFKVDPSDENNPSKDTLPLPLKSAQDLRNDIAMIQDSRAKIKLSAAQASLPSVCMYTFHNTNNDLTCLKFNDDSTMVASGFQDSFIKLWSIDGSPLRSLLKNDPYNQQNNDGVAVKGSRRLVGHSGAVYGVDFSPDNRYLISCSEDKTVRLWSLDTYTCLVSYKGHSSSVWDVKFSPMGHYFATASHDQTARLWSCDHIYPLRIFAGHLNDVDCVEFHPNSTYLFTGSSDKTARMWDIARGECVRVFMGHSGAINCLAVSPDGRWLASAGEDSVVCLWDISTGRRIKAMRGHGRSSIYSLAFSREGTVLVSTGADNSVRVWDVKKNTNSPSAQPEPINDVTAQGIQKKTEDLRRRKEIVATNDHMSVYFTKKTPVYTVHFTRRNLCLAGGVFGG

T3: Taf12, subunit of Komagataella phaffii TFIID (Komagataella phaffii, UniProt F2QSK7 1-609)
T3 construct: Taf12, TFIID subunit of the yeast Komagataella phaffii (formerly Pichia pastoris); histone-fold domain modelled in the cryo-EM map; source: endogenous, K. phaffii nuclear extract; co-purified in TFIID by SBP-tagged Taf2 (streptavidin beads, sucrose gradient)
T3 sequence (looked up): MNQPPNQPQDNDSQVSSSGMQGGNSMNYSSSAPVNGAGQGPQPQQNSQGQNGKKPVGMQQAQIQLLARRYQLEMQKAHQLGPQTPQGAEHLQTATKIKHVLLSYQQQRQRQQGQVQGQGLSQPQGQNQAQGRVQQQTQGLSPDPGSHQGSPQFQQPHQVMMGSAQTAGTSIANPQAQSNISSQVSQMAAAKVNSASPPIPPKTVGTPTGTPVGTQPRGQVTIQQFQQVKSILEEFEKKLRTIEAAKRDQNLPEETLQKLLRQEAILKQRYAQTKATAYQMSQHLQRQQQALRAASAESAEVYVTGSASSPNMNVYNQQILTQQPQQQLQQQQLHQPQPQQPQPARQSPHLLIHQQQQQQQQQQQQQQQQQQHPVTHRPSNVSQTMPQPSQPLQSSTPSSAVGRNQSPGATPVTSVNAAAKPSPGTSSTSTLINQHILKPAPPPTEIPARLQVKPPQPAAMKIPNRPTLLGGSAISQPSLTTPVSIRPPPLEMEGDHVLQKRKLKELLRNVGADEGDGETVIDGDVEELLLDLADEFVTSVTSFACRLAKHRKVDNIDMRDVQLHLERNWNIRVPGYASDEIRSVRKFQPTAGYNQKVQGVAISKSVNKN

T4: Taf8, subunit of Komagataella phaffii TFIID (Komagataella phaffii, UniProt F2QT15 1-517)
T4 construct: Taf8, TFIID subunit of the yeast Komagataella phaffii (formerly Pichia pastoris); putative helices placed in the cryo-EM map; also called KpTaf8; source: endogenous, K. phaffii nuclear extract; co-purified in TFIID by SBP-tagged Taf2 (streptavidin beads, sucrose gradient)
T4 sequence (looked up): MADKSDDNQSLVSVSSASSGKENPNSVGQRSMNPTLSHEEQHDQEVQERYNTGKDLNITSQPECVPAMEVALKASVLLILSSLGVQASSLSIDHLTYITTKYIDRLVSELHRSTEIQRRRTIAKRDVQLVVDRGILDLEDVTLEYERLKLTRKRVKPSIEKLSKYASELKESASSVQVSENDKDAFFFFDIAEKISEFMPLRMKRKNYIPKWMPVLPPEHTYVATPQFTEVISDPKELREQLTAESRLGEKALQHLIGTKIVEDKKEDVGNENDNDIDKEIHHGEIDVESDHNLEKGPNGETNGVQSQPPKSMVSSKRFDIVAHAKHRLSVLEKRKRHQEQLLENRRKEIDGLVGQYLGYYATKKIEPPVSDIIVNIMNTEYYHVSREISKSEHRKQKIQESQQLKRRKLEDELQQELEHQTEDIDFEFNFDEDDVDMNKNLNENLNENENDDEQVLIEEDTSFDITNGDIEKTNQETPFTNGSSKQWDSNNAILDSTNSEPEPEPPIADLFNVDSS


How the values were obtained:
[1] = target: T1, Taf4, subunit of Komagataella phaffii …; assay: cross-linking; 50 µg purified TFIID, 3 mM BS3, 2 h at 25 °C; trypsin, SCX fractionation, Orbitrap Fusion MS; pLink and Nexus, 5% FDR; details: both partners purified
[2] = target: T2, Taf5, subunit of Komagataella phaffii …; assay: as above; details: both partners purified
[3] = target: T3, Taf12, subunit of Komagataella phaffii …; assay: as above; details: both partners purified
[4] = target: T4, Taf8, subunit of Komagataella phaffii …; assay: cryo-EM structure; purified TFIID (0.4 µM) with two-fold excess of TFIIA and 2.5–3-fold excess of pGAP promoter DNA, cross-linked with 0.1% glutaraldehyde; focused refinement of the lobes (Taf2 lobe 4.5 Å, Twin lobe 4.8 Å); homology models docked; details: both partners purified
[5] = target: T5, Taf2 with C-terminal streptavidin-binding peptide tag, subunit of Komagataella phaffii TFIID (Komagataella phaffii, UniProt F2QRH9 1-1571); assay: affinity purification with mass spectrometry; TFIID purified from K. phaffii nuclear extract by the SBP tag at the C-terminus of Taf2 (streptavidin beads, 250 mM potassium acetate, elution with 10 mM biotin, 10–30% sucrose gradient); SDS-PAGE and mass spectrometry of the purified complex; details: partners not purified
T5 construct: Taf2, TFIID subunit of the yeast Komagataella phaffii (formerly Pichia pastoris); residues 36 to 1194 modelled in the cryo-EM map; bait of the purification; also called SBP-tagged Taf2; source: K. phaffii strain with SBP-tagged Taf2, nuclear extract; purified (streptavidin beads, biotin elution, sucrose gradient)

binding result [1] | binding result [2] | binding result [3] | binding result [4] | binding result [5] | Binder
binds | binds | binds |  |  | Taf11, subunit of Komagataella phaffii TFIID (natural protein, UniProt F2QRB1 1-281, looked up, Taf11, TFIID subunit of the yeast Komagataella phaffii (formerly Pichia pastoris); histone-fold domain modelled in the cryo-EM map; source: endogenous, K. phaffii nuclear extract; co-purified in TFIID by SBP-tagged Taf2 (streptavidin beads, sucrose gradient)) MSPKPESEIDQGPSVSVTSAEEKSRLEEVKDVHEDPKAEEGLVSAPQGSDTLGQEGKTEKEQNEAKGDIEEESEESAEEDEEEEEEIVDDQISYALNYLFQDIHEKIRLRETQRDTTQDEFELSRQEKVGLLLENFDQDQMTRYEFFRRANVNKSVAKRIVQSVLGQSINNNVALLVSTVSKMFVGEMVEKAKEVQSRRQKAQILEQISQRKAAIKNIRKRDLDESVVDQIMNSKRIRIPKDEPLSPEDIREAWRLYQLETNVLPSNQWRRQGGGDGNMFR
 |  |  | binds | binds | Taf14, subunit of Komagataella phaffii TFIID (natural protein, UniProt F2QLE3 1-247, looked up, Taf14, yeast-specific TFIID subunit of Komagataella phaffii (formerly Pichia pastoris); YEATS domain docked in the Taf2 lobe of the cryo-EM map; source: endogenous, K. phaffii nuclear extract; co-purified in TFIID by SBP-tagged Taf2 (streptavidin beads, sucrose gradient)) MSDLKRTVRITTTQNVLKDIPPIEKGFPMRKWSISVSLLNDQGKEIPATIFDKVTYHLHPTFENPVRVFKQPPFKIEEQGWGEFDMKIALTIAEKGGERKISHDLNFLKEKYIVDHVISVPTNKPGLLALLAESGPVPSSEGATTPGLSSVTEKRKTSLVGDVKAKKVKTSSGAVKGGVDLEKLADGLTKLSEDDLLGVVQMVTDNRSPEMNIKNDVDEGEFTMDLYSLPDSLLKSLWEYVKKHADV

Source: article PMC6220335, “Molecular structure of promoter-bound yeast TFIID” (Nature Communications, 2018)
